In the supplement of paper PMC9170038:

Test system: MS2 coat protein
Assay: apparent KD of MS2 coat protein; higher = weaker reporter binding
Conditions: Eterna round: R107; input ligand: arginine 13.2 mM
Summary of the method: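 Apparent KD per design is the median of normalised cluster binding-curve fits. Designed RNA switches transcribed on-chip from Illumina sequencing clusters were titrated with SNAP-549-labelled MS2 coat protein in twofold steps from 0.7 or 1.5 nM to 3 µM, with 0.8–1.5 h down to 10–20 min per step. Buffer: 100 mM Tris-HCl pH 7.5, 80 mM KCl, 4 mM MgCl2, without or with constant ligand.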

Sequence	apparent KD of MS2 coat protein [nM]
UCGUGUAAAACGGAUACCAGUGAGAAGGAUACAUGAGGAUCACCCAUGUGAGUUGAUCCACACCCUUGGCAGCUGUAUAUAUCUA [ozomullin]	105
CUGCCAUGCAGAGAUACCAGUGCGCUCAGCACAUGAGGAUCACCCAUGUAGGAUGCCAAUCACCCUUGGCAGCUCUGCAUGGCAG [~`&)_]	15.5
AUACAUGAGUGUUUGAUUAUAGAAACUGAAGGAGCGUGGUAGUACACAGGUAGGUCGCAGUAAAUACAUGAGGAUCACCCAUGUU [JR_Nu_SSArginiA_Sub026]	29.2
CUCCCGUGAGCGGCCGCCACUGGAGGCUUUGCGCGACAUGAGGAUCACCCAUGUGUGCCCGGCGUUAGGACCGGGUUCGCGUGAG [#1 Same State - Tryptophan B Attempt #16 (HarryS)]	8.8
GGAUGCGGCACGGCCGCCACUGCGGUGGUGUGACAUGAGGAUCACCCAUGUUGUCAUGCGGCCCUUAGGACCGGGUGGCGUUUCC [#1 Exclusion - Tryptophan B Attempt #20 (HarryS)]	38
ACGGUUGGUUCGUUACCUCAUAUCUCAGAAGGAGCGGGCAGUAGUCCAGGUAGGUCGCUGGGACAUGAGGAUCACCCAUGUCUUA [Aataer]	22.4
ACCAUGUAAUCAGAUACCAGACAUCUUUUAAAUCAUAUUACAUGAGGAUCACCCAUGUUGGUCCCUUGGCAGCUGAAAUAUUUUU [JR_Nu_SSTheophyB_Sub026]	110
GAGUAGAGGACGGCCGCCACUAAACAUGAGGAUCACCCAUGUCGUGAUCCGUUACCUAGAGUAGAUAGGACCGGGUCAUAUAGUC [Exclusion Tryptophan B GF 16]	20.8
GGCGCGCGCCAACAUGAGGAUCACCCAUGUCGAGGACCGGUACGGCCGCCACUCGAACGAGUGAAGCGCGCGCGCGGAGCGCCGC [Taa]	24
UGACAUUGCUCAGAUACCAGACAUGAGCAUCAGCCAUGUGCCAACAAGUACAUAAUAAAAGUCCCUUGGCAGCUGAGCAAUGUCU [TheoBX 20 #MS2Left #AlternativeMS2 #Theo2]	13.2
CUACAUUUGUAGAAACCGGUCAACAAUAAUCGAGGACCGGUACGGCCGCCACUCGAUGUGUUAUACACAUGAGGAUCACCCAUGU [Tryptophan A 14]	21.7
AGCCCUGUGCUAGAUACCAGCUACAUGAGGAUCACCCAUGUGCGUCAGGACUGACUGUGUAGCCCUUGGCAGCUACUCGCAUGUA [Exclusion - Theophylline B (Freestyle 5)]	14.4
AAACUGGGUGUAAAAUAAAUAAUCACUGAUACCAGACUAUGAGAUGUCCCUUGGCAGCAGAAACAUGAGGAUCACCCAUGUAAUA [JR_Nu_ExcTheophyA_Sub026]	19.6
AGACAUGAGGAUCACCCAUGUAGCAUGGAUACCAGAUCCAGAUUUAUCCCUUGGCAGCUGUGGUAAAGUGAUGGAUUGCUCCUAG [Exclusion - Theophylline A (Freestyle 7)]	38.1
CCAUAAGUAACUGAUACCAGUGUACUGACAUGAGGAUCACCCAUGUUGGGUUUUGUUGUACACCCUUGGCAGCAGAAUCUUGUGG [AstrosExyTheB#16]	43.9
AAUGGCGUUGGUGAGGCGGUUAAUGGCGAUACCAGCGUGGAAACACGCCCUUGGCAGCGCCAAAACAUGAGGAUCACCCAUGUUA [Olomouc]	15.8

Same assay, conditions: Eterna round: R107; input ligand: none

Sequence	apparent KD of MS2 coat protein [nM]
CUGCCAUGCAGAGAUACCAGUGCGCUCAGCACAUGAGGAUCACCCAUGUAGGAUGCCAAUCACCCUUGGCAGCUCUGCAUGGCAG [~`&)_]	15.7
AUACAUGAGUGUUUGAUUAUAGAAACUGAAGGAGCGUGGUAGUACACAGGUAGGUCGCAGUAAAUACAUGAGGAUCACCCAUGUU [JR_Nu_SSArginiA_Sub026]	32.9
CUCCCGUGAGCGGCCGCCACUGGAGGCUUUGCGCGACAUGAGGAUCACCCAUGUGUGCCCGGCGUUAGGACCGGGUUCGCGUGAG [#1 Same State - Tryptophan B Attempt #16 (HarryS)]	12.3
GGAUGCGGCACGGCCGCCACUGCGGUGGUGUGACAUGAGGAUCACCCAUGUUGUCAUGCGGCCCUUAGGACCGGGUGGCGUUUCC [#1 Exclusion - Tryptophan B Attempt #20 (HarryS)]	56.7
ACGGUUGGUUCGUUACCUCAUAUCUCAGAAGGAGCGGGCAGUAGUCCAGGUAGGUCGCUGGGACAUGAGGAUCACCCAUGUCUUA [Aataer]	103
GGCGCGCGCCAACAUGAGGAUCACCCAUGUCGAGGACCGGUACGGCCGCCACUCGAACGAGUGAAGCGCGCGCGCGGAGCGCCGC [Taa]	37.1
UGACAUUGCUCAGAUACCAGACAUGAGCAUCAGCCAUGUGCCAACAAGUACAUAAUAAAAGUCCCUUGGCAGCUGAGCAAUGUCU [TheoBX 20 #MS2Left #AlternativeMS2 #Theo2]	11.3

Same assay, conditions: Eterna round: R107; input ligand: theophylline 20 uM

Sequence	apparent KD of MS2 coat protein [nM]
UCGUGUAAAACGGAUACCAGUGAGAAGGAUACAUGAGGAUCACCCAUGUGAGUUGAUCCACACCCUUGGCAGCUGUAUAUAUCUA [ozomullin]	185
CUGCCAUGCAGAGAUACCAGUGCGCUCAGCACAUGAGGAUCACCCAUGUAGGAUGCCAAUCACCCUUGGCAGCUCUGCAUGGCAG [~`&)_]	22.8
AUACAUGAGUGUUUGAUUAUAGAAACUGAAGGAGCGUGGUAGUACACAGGUAGGUCGCAGUAAAUACAUGAGGAUCACCCAUGUU [JR_Nu_SSArginiA_Sub026]	36.5
CUCCCGUGAGCGGCCGCCACUGGAGGCUUUGCGCGACAUGAGGAUCACCCAUGUGUGCCCGGCGUUAGGACCGGGUUCGCGUGAG [#1 Same State - Tryptophan B Attempt #16 (HarryS)]	13.9
GGAUGCGGCACGGCCGCCACUGCGGUGGUGUGACAUGAGGAUCACCCAUGUUGUCAUGCGGCCCUUAGGACCGGGUGGCGUUUCC [#1 Exclusion - Tryptophan B Attempt #20 (HarryS)]	73.6
ACGGUUGGUUCGUUACCUCAUAUCUCAGAAGGAGCGGGCAGUAGUCCAGGUAGGUCGCUGGGACAUGAGGAUCACCCAUGUCUUA [Aataer]	139
ACCAUGUAAUCAGAUACCAGACAUCUUUUAAAUCAUAUUACAUGAGGAUCACCCAUGUUGGUCCCUUGGCAGCUGAAAUAUUUUU [JR_Nu_SSTheophyB_Sub026]	212
GAGUAGAGGACGGCCGCCACUAAACAUGAGGAUCACCCAUGUCGUGAUCCGUUACCUAGAGUAGAUAGGACCGGGUCAUAUAGUC [Exclusion Tryptophan B GF 16]	41.5
GGCGCGCGCCAACAUGAGGAUCACCCAUGUCGAGGACCGGUACGGCCGCCACUCGAACGAGUGAAGCGCGCGCGCGGAGCGCCGC [Taa]	47.8
UGACAUUGCUCAGAUACCAGACAUGAGCAUCAGCCAUGUGCCAACAAGUACAUAAUAAAAGUCCCUUGGCAGCUGAGCAAUGUCU [TheoBX 20 #MS2Left #AlternativeMS2 #Theo2]	16.2
CUACAUUUGUAGAAACCGGUCAACAAUAAUCGAGGACCGGUACGGCCGCCACUCGAUGUGUUAUACACAUGAGGAUCACCCAUGU [Tryptophan A 14]	24.7
AGCCCUGUGCUAGAUACCAGCUACAUGAGGAUCACCCAUGUGCGUCAGGACUGACUGUGUAGCCCUUGGCAGCUACUCGCAUGUA [Exclusion - Theophylline B (Freestyle 5)]	20
AAACUGGGUGUAAAAUAAAUAAUCACUGAUACCAGACUAUGAGAUGUCCCUUGGCAGCAGAAACAUGAGGAUCACCCAUGUAAUA [JR_Nu_ExcTheophyA_Sub026]	24.5
AGACAUGAGGAUCACCCAUGUAGCAUGGAUACCAGAUCCAGAUUUAUCCCUUGGCAGCUGUGGUAAAGUGAUGGAUUGCUCCUAG [Exclusion - Theophylline A (Freestyle 7)]	55.8
CCAUAAGUAACUGAUACCAGUGUACUGACAUGAGGAUCACCCAUGUUGGGUUUUGUUGUACACCCUUGGCAGCAGAAUCUUGUGG [AstrosExyTheB#16]	70.1
AAUGGCGUUGGUGAGGCGGUUAAUGGCGAUACCAGCGUGGAAACACGCCCUUGGCAGCGCCAAAACAUGAGGAUCACCCAUGUUA [Olomouc]	23.5

Same assay, conditions: Eterna round: R107; input ligand: theophylline 2 mM

Sequence	apparent KD of MS2 coat protein [nM]
CUGCCAUGCAGAGAUACCAGUGCGCUCAGCACAUGAGGAUCACCCAUGUAGGAUGCCAAUCACCCUUGGCAGCUCUGCAUGGCAG [~`&)_]	12.8
AUACAUGAGUGUUUGAUUAUAGAAACUGAAGGAGCGUGGUAGUACACAGGUAGGUCGCAGUAAAUACAUGAGGAUCACCCAUGUU [JR_Nu_SSArginiA_Sub026]	36.5
CUCCCGUGAGCGGCCGCCACUGGAGGCUUUGCGCGACAUGAGGAUCACCCAUGUGUGCCCGGCGUUAGGACCGGGUUCGCGUGAG [#1 Same State - Tryptophan B Attempt #16 (HarryS)]	11.2
GGAUGCGGCACGGCCGCCACUGCGGUGGUGUGACAUGAGGAUCACCCAUGUUGUCAUGCGGCCCUUAGGACCGGGUGGCGUUUCC [#1 Exclusion - Tryptophan B Attempt #20 (HarryS)]	66.7
ACGGUUGGUUCGUUACCUCAUAUCUCAGAAGGAGCGGGCAGUAGUCCAGGUAGGUCGCUGGGACAUGAGGAUCACCCAUGUCUUA [Aataer]	211
GAGUAGAGGACGGCCGCCACUAAACAUGAGGAUCACCCAUGUCGUGAUCCGUUACCUAGAGUAGAUAGGACCGGGUCAUAUAGUC [Exclusion Tryptophan B GF 16]	24.5
GGCGCGCGCCAACAUGAGGAUCACCCAUGUCGAGGACCGGUACGGCCGCCACUCGAACGAGUGAAGCGCGCGCGCGGAGCGCCGC [Taa]	47
UGACAUUGCUCAGAUACCAGACAUGAGCAUCAGCCAUGUGCCAACAAGUACAUAAUAAAAGUCCCUUGGCAGCUGAGCAAUGUCU [TheoBX 20 #MS2Left #AlternativeMS2 #Theo2]	68.4
CUACAUUUGUAGAAACCGGUCAACAAUAAUCGAGGACCGGUACGGCCGCCACUCGAUGUGUUAUACACAUGAGGAUCACCCAUGU [Tryptophan A 14]	22.9

Same assay, conditions: Eterna round: R107; input ligand: tryptophan 2.4 mM

Sequence	apparent KD of MS2 coat protein [nM]
UCGUGUAAAACGGAUACCAGUGAGAAGGAUACAUGAGGAUCACCCAUGUGAGUUGAUCCACACCCUUGGCAGCUGUAUAUAUCUA [ozomullin]	122
CUGCCAUGCAGAGAUACCAGUGCGCUCAGCACAUGAGGAUCACCCAUGUAGGAUGCCAAUCACCCUUGGCAGCUCUGCAUGGCAG [~`&)_]	16.3
AUACAUGAGUGUUUGAUUAUAGAAACUGAAGGAGCGUGGUAGUACACAGGUAGGUCGCAGUAAAUACAUGAGGAUCACCCAUGUU [JR_Nu_SSArginiA_Sub026]	38.4
CUCCCGUGAGCGGCCGCCACUGGAGGCUUUGCGCGACAUGAGGAUCACCCAUGUGUGCCCGGCGUUAGGACCGGGUUCGCGUGAG [#1 Same State - Tryptophan B Attempt #16 (HarryS)]	11.2
GGAUGCGGCACGGCCGCCACUGCGGUGGUGUGACAUGAGGAUCACCCAUGUUGUCAUGCGGCCCUUAGGACCGGGUGGCGUUUCC [#1 Exclusion - Tryptophan B Attempt #20 (HarryS)]	62.9
ACGGUUGGUUCGUUACCUCAUAUCUCAGAAGGAGCGGGCAGUAGUCCAGGUAGGUCGCUGGGACAUGAGGAUCACCCAUGUCUUA [Aataer]	166
ACCAUGUAAUCAGAUACCAGACAUCUUUUAAAUCAUAUUACAUGAGGAUCACCCAUGUUGGUCCCUUGGCAGCUGAAAUAUUUUU [JR_Nu_SSTheophyB_Sub026]	303
GGCGCGCGCCAACAUGAGGAUCACCCAUGUCGAGGACCGGUACGGCCGCCACUCGAACGAGUGAAGCGCGCGCGCGGAGCGCCGC [Taa]	60.1
UGACAUUGCUCAGAUACCAGACAUGAGCAUCAGCCAUGUGCCAACAAGUACAUAAUAAAAGUCCCUUGGCAGCUGAGCAAUGUCU [TheoBX 20 #MS2Left #AlternativeMS2 #Theo2]	11.3
AGCCCUGUGCUAGAUACCAGCUACAUGAGGAUCACCCAUGUGCGUCAGGACUGACUGUGUAGCCCUUGGCAGCUACUCGCAUGUA [Exclusion - Theophylline B (Freestyle 5)]	14.5
AAACUGGGUGUAAAAUAAAUAAUCACUGAUACCAGACUAUGAGAUGUCCCUUGGCAGCAGAAACAUGAGGAUCACCCAUGUAAUA [JR_Nu_ExcTheophyA_Sub026]	25.2
AGACAUGAGGAUCACCCAUGUAGCAUGGAUACCAGAUCCAGAUUUAUCCCUUGGCAGCUGUGGUAAAGUGAUGGAUUGCUCCUAG [Exclusion - Theophylline A (Freestyle 7)]	36.9
CCAUAAGUAACUGAUACCAGUGUACUGACAUGAGGAUCACCCAUGUUGGGUUUUGUUGUACACCCUUGGCAGCAGAAUCUUGUGG [AstrosExyTheB#16]	54.3
AAUGGCGUUGGUGAGGCGGUUAAUGGCGAUACCAGCGUGGAAACACGCCCUUGGCAGCGCCAAAACAUGAGGAUCACCCAUGUUA [Olomouc]	16.9
